Results taken from the DeepSol protein solubility set.

Assay: soluble on expression in E. coli; label from the status in PepcDB or PDB records

Sequence	soluble on expression in E. coli
RSARPPGPRVSRARCLPGLIAEQLLQQAARGQDRQQQLQRDPQKALCDLHPSWKEIQALQCRPGHPPEQPWETSQMPESQVKGSRRPKFHARPEDYAVSQPNRDIQEKREASLEESPVALGESASVPQVSETVPASQPLSKKTSSQSNSSSEGSMWATVPSSPTLDRDTASEVDDLEPDSVSLALEMGGSAAPAAPKLKIFMAQYNYNPFEGPNDHPEGELPLTAGDYIYIFGDMDEDGFYEGELDDGRRGLVPSNFVEQIPDSYIPGCLPAKSPDLGPSQLPAGQDEALEEDSLLSGKAQGVVDRGLCQMVRVGSKTEVATEILDTKTEACQLGLLQSMGKQGLSRPLLGTKGVLRMAPMQLHLQNVTATSANITWVYSSHRHPHVVYLDDREHALTPAGVSCYTFQGLCPGTHYRARVEVRLPRDLLQVYWGTMSSTVTFDTLLAGPPYPPLDVLVERHASPGVLVVSWLPVTIDSAGSSNGVQVTGYAVYADGLKVCEVADATAGSTLLEFSQLQVPLTWQKVSVRTMSLCGESLDSVPAQIPEDFFMCHRWPETPPFSYTCGDPSTYRVTFPVCPQKLSLAPPSAKASPHNPGSCGEPQAKFLEAFFEEPPRRQSPVSNLGSEGECPSSGAGSQAQELAEAWEGCRKDLLFQKSPQNHRPPSVSDQPGEKENCSQHMGTSKSPAPGFIHLRTECGPRKEPCQEKAALERVLRQKQDAQGFTPPQLGASQQYASDFHNVLKEEQEALCLDLWGTERREERREPEPHSRQGQALGVKRGCQLHEPSSALCPAPSAKVIKMPRGGPQQLGTGANTPARVFVALSDYNPLVMSANLKAAEEELVFQKKQLLRVWGSQDTHDFYLSECNRQVGNIPGCLVAEMEVGTEQTDRRWRSPAQGHLPSVAHLEDFQGLTIPQGSSLVLQGNSKRLPLWTPKIMIAALDYDPGDGQMGGQGKGRLALRAGDVVMVYGPMDDQGFYYGELGGHRGLVPAHLLDHMSLHGH	soluble
RSPYDMEVIGQTIDDAAGEAFDKCAKVMGLGYPGGPIVNKLASEGNPDAFRFARPHVSGYDYSFSGLKTSFLYTLRDKLAEDPDFIEKNKADLCASLQHTVIDILMKKLRQAAKDHSIKQVALAGGVSANTGLRDAFHDHARRYGWTVFIPKFAYTTDNAAMVAISGYYKYLQGDFCPIDAVPFSRITV	not soluble
RTHSGEKPYECYICHARFTQSGTMKMHILQKHTENVAKFHCPHCDTVIARKSDLGVHLRKQHSY	soluble
RVAGSAIDYWRAGILGKRRVRVENHIVLLGWNGSRTMHLIRMLQHEEEGKRPIVLCSRSDIENPLPGEIHFIKVTSYTDAQEMKNANITDASCIIVDNLSDDITLSAALYCASVNPDAHLLAYFKDDALGRLLSQHCPKAECIPAVGAEMLAKAAVDPGSSALHQELLASTRGMTQYSVIYPENQPITTIESIFGFIKKRHHATLIAFDIGNGIQLNPDLDAEVPPGTKLFYIADERIDDFAWKEMNKEQ	not soluble
RVARGWGGCGACGGSGIVGQGKGEPSRRRGRAAGRPQSMERGKMAEAESLETAAEHERILREIESTDTACIGPTLRSVYDGEEHGRFMEKLETRIRNHDREIEKMCNFHYQGFVDSITELLKVRGEAQKLKNQVTDTNRKLQHEGKELVIAMEELKQCRLQQRNISATVDKLMLCLPVLEMYSKLRDQMKTKRHYPALKTLEHLEHTYLPQVSHYRFCKVMVDNIPKLREEIKDVSMSDLKDFLESIRKHSDKIGETAMKQAQQQRNLDNIVLQQPRIGSKRKSKKDAYIIFDTEIESTSPKSEQDSGILDVEDEEDDEEVPGAQDLVDFSPVYRCLHIYSVLGARETFENYYRKQRRKQARLVLQPPSNMHETLDGYRKYFNQIVGFFVVEDHILHTTQGLVNRAYIDELWEMALSKTIAALRTHSSYCSDPNLVLDLKNLIVLFADTLQVYGFPVNQLFDMLLEIRDQYSETLLKKWAGIFRNILDSDNYSPIPVTSEEMYKKVVGQFPFQDIELEKQPFPKKFPFSEFVPKVYNQIKEFIYACLKFSEDLHLSSTEVDDMIRKSTNLLLTRTLSNSLQNVIKRKNIGLTELVQIIINTTHLEKSCKYLEEFITNITNVLPETVHTTKLYGTTTFKDARHAAEEEIYTNLNQKIDQFLQLADYDWMTGDLGNKASDYLVDLIAFLRSTFAVFTHLPVSGSCSYFVLYI	soluble
SAAALRVAAVGARLSVLASGLRAAVRSLCSQATSVNERIENKRRTALLGGGQRRIDAQHKRGKLTARERISLLLDPGSFVESDMFVEHRCADFGMAADKNKFPGDSVVTGRGRINGRLVYVFSQDFTVFGGSLSGAHAQKICKIMDQAITVGAPVIGLNDSGGARIQEGVESLAGYADIFLRNVTASGVIPQISLIMGPCAGGAVYSPALTDFTFMVKDTSYLFITGPDVVKSVTNEDVTQEELGGAKTHTTMSGVAHRAFENDVDALCNLRDFFNYLPLSSQDPAPVRECHDPSDRLVPELDTIVPLESTKAYNMVDIIHSVVDEREFFEIMPNYAKNIIVGFARMNGRTVGIVGNQPKVASGCLDINSSVKGARFVRFCDAFNIPLITFVDVPGFLPGTAQEYGGIIRHGAKLLYAFAEATVPKVTVITRKAYGGAYDVMSSKHLCGDTNYAWPTAEIAVMGAKGAVEIIFKGHENVEAAQAEYIEKFANPFPAAVRGFVDDIIQPSSTRARICCDLDVLASKKVQRPWRKHANIPL	soluble
SAAEGDFLMRYRAVSNKLKKRFLRKPNVAEASEQFGQLAKELKQQDCPQYAAFCNLAMARCEQTLFNAPGEALALTDAARLFLASEQETRALRAPGFDENMQAAMNCYSFAIKVYIEMNQPVMAARLSLELGNALKEMNRPGEAIIHFQRAAELQIQMPIEALLSLWEMASCKILTRDYDGALAVLSEMQHMCQERGLQLPGTNTPVGAFMDIIAKCEISRVLLLMLLEPPPQKLLPEHAQTLERYAWESFDSHSQMACQEKDTESLKALQTELW	soluble
SAALAGVFVWDEERIQEEELQRSINEMKRLEEMSNMFQSSGVQHHPPEPKAQTEGNEDSEGKEQRWEMVMDKKHFKLWRRPITGTHLYQYRVFGTYTDVTPRQFFNVQLDTEYRKKWDALVIKLEVIERDVVSGSEVLHWVTHFPYPMYSRDYVYVRRYSVDQENNMMVLVSRAVEHPSVPESPEFVRVRSYESQMVIRPHKSFDENGFDYLLTYSDNPQTVFPRYCVSWMVSSGMPDFLEKLHMATLKAKNMEIKVKDYISAKPLEMSSEAKATSQSSERKNEGSCGPARIEYA	soluble
SADWARAQSPGAVEEILDRENKRMADSLASKVTRLKSLALDIDRDAEDQNRYLDGMVRAHGVRVSVPCPSTTCCRACSVSFSTGAGGWSNHHFCVILLGFLP	soluble
SAEDGLPKIYSHPPTESSKTPTAATIFFGADNAIPKSETTITSEGDHVTSVNEYMLESDFSTTTDNKLTAKKEKLKSEDDMGTDFIKSTTHLQKEITSLTGTTNSITRDSITEHFMPVKIGNISSPVTTVSLIDFSTDIAKEDILLATIDTGDAEISITSEVSGTLKDSSAGVADAPAFPRKKDEADMSNYNSSIKSNVPADEAVQVTDSIIPEAEIPPAPEESFTTIPDITALEEEKITEIDLSVLEDDTSAVATLTDSDEKFITVFELTTSAEKDKDKREDTLLTDEETTEGASIGMERDTANEAETHSVLLTAVESRYDFVVPASIATNLVEESSTEEDLSETDNTETVPKITEPFSGTTSVLDTPDYKEDTSTTETDIFELLKEEPDEFMI	not soluble
SAEGEDVGWWRSWLQQSYQAVKERSTEALEFMKRDLTEFTQVVQHDTACTIAATASVVKEKLATEGSSGATEKVKKGLSDFLGVISDTFAPSPDKTIDCDVITLMGTPSGTAEPYDGTKARLYSLQSDPATYCNEPDGPPELFDAWLSEFCLEEKKGEISELLVGSPSIRALYTKMVPAAVSHSEFWHRYFYKVHQLEQEQARRDALKQRADQSISEEPGWEEEEEELEGIVPSPKEAKIPKETKTTTSPEDEPAPQSPCEETPVEPPAEATPSESSESISLVTQVANPAAAPEAPELPKDLSQKLFEASLEEQSLAEDEGETGPPPPPPSKPLTPAGRASGPEPRPPARVETLREEVPTDLRVFELNSDSGKSTPSNNGKKGSSTDISEDWEKDFDLDMTEEEVQMALSKVDASGELEDVEWEDWE	not soluble
SAENERMYISYNNIHKLCQGVAKHILARNERPDIIIAITGGGMIPARIIRSFLKTKGQKNIPIQAIGLSLYEDLGLDNSVETIGKEVIRTQWLDFGALNQHFDSLIGKKVLIVDEVDDTRTTLHYAVSELEKEIAEQQKVLNRMSEETVISIFVLHNKDKPKRAGLPDSMMNSGRYIAAQTVPDKWLCYPWDAEDIEEHTMLAKAQGHD	soluble
SAESPAFLSAKDEGSFAYLTIKDRTPQILTKVIDTLHRHKSEFFEKHGEEGIEAEKKAISLLSKLRNELQTDKPITPLVDKCVDTHIWNQYLEYQRSLLNEGDGEPRWFFSPWLFVECYMYRRIHEAIMQRQVYSQ	soluble
SAGSVADSDAVVKLDDGHLNNSLSSPVQADVYFPRLIVPFCGHIKGGMRPGKKVLVMGIVDLNPESFAISLTCGDSEDPPADVAIELKAVFTDRQLLRNSCISGERGEEQSAIPYFPFIPDQPFRVEILCEHPRFRVFVDGHQLFDFYHRIQTLSAIDTIKINGDLQITKLG	soluble
SALSSCASLLGSPLSNDFMVLSLSDLLTPWEVIRKRAEAAAILDLVTVIYNPRGSRFPNNLEKVMEYFLKYRSGDTPVGIVRNAYRPDQSAKIVQLKDFSCSEIDMLTTVIIGNSETY	not soluble
SAQEEGGSLPEVRARVRAAHGIPDLAQKLHFYDRWAPDYDQDVATLLYRAPRLAVDCLTQALPGPPHSALILDVACGTGLVAAELRAPGFLQLHGVDGSPGMLEQARAPGLYQRLSLCTLGQEPLPSPEGTFDAVLIVGALSDGQVPCNAIPELHVTKPGGLVCLTTRTNWSNLQYKEALEATLDRLEQAGMWEGLVAWPVDRLWTAGSWLPPSWWWYPASLPRMASSPALSTCTESGRRPRLRK	soluble
SASTIYTCKECGSDLNLNPNDLFPPDFYFEAGNKGTLSFAAVDAEKFRFEKEDKIMPFFETLNYWGIQRKRTKIKCTSCNHLIGYIYDDGPPLTGGIGQYGFGPSQVIPRAPRYRFKTKARQDGWQYGGLTAFWN	soluble
SATETQIRIGVMGCADIARKVSRAIHLAPNATISGVASRSLEKAKAFATANNYPESTKIHGSYESLLEDPEIDALYVPLPTSLHVEWAIKAAEKGKHILLEKPVAMNVTEFDKIVDACEANGVQIMDGTMWVHNPRTALLKEFLSDSERFGQLKTVQSCFSFAGDEDFLKNDIRVKPGLDGLGALGDAGWYAIRATLLANNFELPKTVTAFPGAVLNEAGVILSCGASLSWEDGRTATIYCSFLANLTMEITAIGTKGTLRVHDFIIPYKETEASFTTSTKAWFNDLVTAWVSPPSEHTVKTELPQEACMVREFARLVGEIKNNGAKPDGYWPSISRKTQLVVDAVKESVDKNYQQISLSGR	soluble
SATGTPESQARFGQSVKGLLTEKVTTCGTDVIALTKQVLKGSRSSELLGQAARNMVLQEDAILHSEDSLRKMAIITTHLQYQQEAIQKNVEQSSDLQDQLNHLLK	soluble
SAVAVEGARRKERILCLFDVDGTLTPARQKIDPETIQNHLGEELLQDLINFCLSYMALLRLPKKRGTFIEFRNGMLNVSPIGRSCTLEERIEFSELDKKEKIREKFVEALKTEFAGKGLRFSRGGMISFDVFPEGWDKRYCLDSLDEDSFDIIHFFGNETSPGGNDFEIYADPRTVGHSVVSPQDTVQRCRELFFPETAHEA	soluble
